# Measurements reported in publication PMC6646387, “Identification of intracellular cavin target proteins reveals cavin-PP1alpha interactions regulate apoptosis” (Nature Communications, 2019).
# B1: mCherry-Cavin3 (natural protein, mouse, UniProt Q91VJ2 1-260, looked up)
# chain: MGESALEPGPVPETPAGGPVHAVTVVTLLEKLATMLEALRERQGGLAERQGGLAGSVRRIQSGLGALSRSHDTTSNTLTQLLAKAERVGSHADAAQERAVRRAAQVQRLEANHGLLVARGKLHVLLFKEETEIPARAFQKVPELLGPEDQLVLGPDQPEDEVGESSEEEPVESRAQRLRRTGLQKVQSLKRALSSRKAAQPTPVKPPRVGPVRSSEGPSEGQPAAQPEMESELETALEPEPPQPTKEDPEKPVLQIESAA
# notes: Murine Cavin-3 (PRKCDBP), amplified from NIH-3T3 fibroblast cDNA, in an mCherry vector; also called mCherry-tagged Cavin3; source: MCF-7, transfected, in lysate (cytosolic or PNS fraction)
# B2: mCherry-Cavin1 (natural protein, mouse, UniProt O54724 1-392, looked up)
# chain: MEDVTLHIVERPYSGFPDASSEGPEPTQGEARATEEPSGTGSDELIKSDQVNGVLVLSLLDKIIGAVDQIQLTQAQLEERQAEMEGAVQSIQGELSKLGKAHATTSNTVSKLLEKVRKVSVNVKTVRGSLERQAGQIKKLEVNEAELLRRRNFKVMIYQDEVKLPAKLSVSKSLKESEALPEKEGDELGEGERPEDDTAAIELSSDEAVEVEEVIEESRAERIKRSGLRRVDDFKKAFSKEKMEKTKVRTRENLEKTRLKTKENLEKTRHTLEKRMNKLGTRLVPVERREKLKTSRDKLRKSFTPDHVVYARSKTAVYKVPPFTFHVKKIREGEVEVLKATEMVEVGPEDDEVGAERGEATDLLRGSSPDVHTLLEITEESDAVLVDKSDSD
# notes: Murine Cavin-1 (PTRF, caveolae-associated protein 1); oligomeric in MCF-7 cells by burst brightness; also called mCherry-tagged Cavin1; source: MCF-7, transfected, in lysate (cytosolic or PNS fraction)
# Target: T1, GFP-PP1α (UniProt P62136 1-330)
# T1 construct: serine/threonine-protein phosphatase PP1alpha catalytic subunit (PP1α); construct provided by the Trinkle-Mulcahy Laboratory; printed both as GFP-PP1α and PP1α-GFP; also called PP1α-GFP; PP1alpha-GFP; source: MCF-7 or A431, transfected, in lysate
# T1 sequence (P62136 whole entry): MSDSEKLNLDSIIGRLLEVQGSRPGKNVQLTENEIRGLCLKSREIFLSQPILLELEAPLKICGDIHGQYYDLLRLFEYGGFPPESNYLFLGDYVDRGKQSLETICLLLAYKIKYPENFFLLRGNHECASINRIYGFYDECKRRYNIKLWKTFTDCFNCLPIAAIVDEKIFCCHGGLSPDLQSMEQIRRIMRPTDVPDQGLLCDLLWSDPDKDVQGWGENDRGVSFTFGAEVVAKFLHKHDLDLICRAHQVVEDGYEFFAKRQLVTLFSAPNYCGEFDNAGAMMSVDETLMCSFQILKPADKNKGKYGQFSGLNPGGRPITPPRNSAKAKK
# Assay: single-molecule coincidence detection; PNS fraction of MCF-7 cells cotransfected with GFP-PP1α and Cherry-Cavin1 or Cherry-Cavin3, in PBS, diluted to about 1 nM; two-colour confocal detection; C = mCherry/(GFP+mCherry); oligomeric state from burst brightness
# Conditions: partners not purified
binder,measurement,value
B1,coincidence ratio,0.5
same,stoichiometry N,1
B2,coincidence ratio,0.7
